From PMC12671567 (Cancer research, 2026)

target: recombinant human Siglec-10 protein (Siglec-10 antigen coated in ELISA) (Homo sapiens (Human)., UniProt Q96LC7); assay: not given
Sequence (Q96LC7 17-550): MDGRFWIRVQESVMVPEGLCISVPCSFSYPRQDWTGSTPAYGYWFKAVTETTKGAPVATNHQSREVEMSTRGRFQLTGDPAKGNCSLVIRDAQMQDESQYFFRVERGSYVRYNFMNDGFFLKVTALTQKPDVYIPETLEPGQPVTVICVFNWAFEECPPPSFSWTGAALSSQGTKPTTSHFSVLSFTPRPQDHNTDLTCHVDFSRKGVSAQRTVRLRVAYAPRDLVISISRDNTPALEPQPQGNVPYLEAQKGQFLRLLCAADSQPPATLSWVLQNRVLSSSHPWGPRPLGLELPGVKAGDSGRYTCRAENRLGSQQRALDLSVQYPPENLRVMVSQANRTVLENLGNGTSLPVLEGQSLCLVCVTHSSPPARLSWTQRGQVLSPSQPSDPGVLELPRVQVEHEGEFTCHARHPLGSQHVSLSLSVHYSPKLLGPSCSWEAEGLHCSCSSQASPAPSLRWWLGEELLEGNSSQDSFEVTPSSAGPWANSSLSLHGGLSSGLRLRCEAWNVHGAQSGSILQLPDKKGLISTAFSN

Binder | binding result
31E6H8 (antibody, V domains shown) VH: EVKLVESGGGLVQPGGSLSLSCAASGFTFTDYYMTWVRQPPGKALEWLGFIRNKANGYTTEYSASVKGRFTISRDNSQSILSLQMNALSAEDSATYYCASLVLRGFAYWGQGTLVTVSA VL: not shown | binds
56C3E6 (antibody, V domains shown) VH: EVNLVESGGGLVQPGDSLSLSCATSGFTFTDYYMSWVRQPPGKALEWLGFIRNKANGYTTEYSASVKGRFTISRDNSQSILYLQMNALRPEDSATYYCASPVLRGFAYWGRGTLVTVSA VL: DIQMTQSPASLSASVGETVTITCRASGNIHNYLAWYQQKQGKSPQLLVYNAKTLADGVPSRFSGSGSGTQYSLKINSLQPEDFGSYYCQHFWSTPFTFGSGTKLEIK | binds
36F7B3 (antibody, V domains shown) VH: EVKLVESGGGLVQPGGSLSLSCAASGFTFTDYYMTWVRQPPGKALEWLCFIRNKANGYTTEYSASVKGRFTISRDNSQSILYLQVNALRAEDSATYYCATYVLRGLAYWGQGTLVTVSA VL: not shown | binds
66E8F8 (antibody, V domains shown) VH: EVKLVESGGGLVQPGGSLSLSCAASGFTFTDYYMSWVRQPPGKALEWLCFIRNKANGYTTEYSASVKGRFTISRDNSQSILYLQVNALRAEDSATYYCATYVLRGLAYWGQGTLVTVSA VL: not shown | binds
35G6G1 (antibody, V domains shown) VH: EVKLVESGGGLVQPGGSLSLSCAASGFTFADYYMTWVRQPPGKALEWLGFIRNKANGFTTEYSASVKGRFTISRDNSQSILYLQMNALRAEDSATYYCARYGLRGFAYWGQGTLVTVSA VL: DIVMTQSPSSLAMSVGQKVTLNCKSSQSLLNSSNQKNYLAWYQQKPGQSPKLLVYFASTRESGVPDRFIGSGSGTDFTLTISSVQAEDLADYFCHQHYSTPFTFGSGTKLEMK | binds
22F1A9 (antibody, V domains shown) VH: EVQLVESGGGLVKPGGSLKLSCAASGFTFSSYAMSWVRQTPEKRLEWVATISDGGSYTYYPDNVKGRFTISRDNTKNNLYLQMSHLKSEDTAMFYCARDLSPLYYRGPMDYWGQGTSVTVSS VL: DIQMTQSPASLSASLGERVSLTCRASQDIGSSLNWLQQEPDGTIKRLIYATSSLDSGVPKRFSGSRSGSDYSLTISSLESEDFVDYYCLQYASSPFTFGSGTKLEIK | binds

Further lines, results first:

binding result | Binder
binds | 35B3F9 (antibody, V domains shown) VH: EVKLVESGGGLVQPGGSLRLSCAASGFTFTDYYMSWVRQPPGKALEWLGFIRNKVSGYTTDNSASVKGRFTISRDDSQSIVYLQMNDLRAEDSATYYCARYVSLWLLGYFDVWGTGTTVTVSS VL: DVQITQSPSYLAASPGETITINCRASKSISKYLAWYQEKPGKTNKLLIYSGSTLQSGIPSRFSGSGSGTDFTLTISSLEPEDFAMYYCQQHNEYPLTFGTGTKLELK
binds | 73D4G2 (antibody, V domains shown) VH: EVRLVESGGGLVQPGGSLRLSCAASGFTFTDYYMSWVRQPPGKALEWLGFIRNKPSGYTTEYSASVKGRFTISRDNSQSILYLQMNALRAEDSATYYCARYISLWLLGYLDVWGTGTTVTVSS VL: DVQITQSPSYLAASPGETIIINCRTSKSISKYLAWYQEKPGKTNKLLIYSGSTLQSGIPSRFSGSGSGTDFTLTISSLEPEDFAMYYCQQHNEYPLTFGAGTKLELK
binds | 68B1E2 (antibody, V domains shown) VH: EVKLVESGGGLVQPGGSLSLSCAASGFTFTDYYMSWVRQPPGKALEWLGFIRNKASGYTTEYNASVKGRFTISRDNSQNILYLQMNALRAEDGATYYCVRYISLWLLGYFDVWGTGTTVTVSS VL: DVQITQSPSYLAASPGETITINCRASKSISKYLAWYQEKPGKTNKLLIYSGSTLQSGIPSRFSGSGSGTDFTLTISSLEPEDFAMYYCQQHNDYPLTFGAGTKLELK
binds | 38D6A8 (antibody, V domains shown) VH: EVKLVESGGGLVQPGGSLSLSCAASGFTFTDYYMSWVRQPPGKALEWLGFIRNKASGYTTEYSASVKGRFTISRDNSQNILYLQMNALRAEDGATYYCVRYISLWLLGYFDVWGTGTTVTVSS VL: DVQITQSPSYLAASPGETITINCRASKSISKYLAWYQEKPGKTNKLLIYSGSTLQSGIPSRFSGSGSGTDFTLTISSLEPEDFAMYYCQQHNDYPLTFGAGTKLELK
binds | 54C2F11 (antibody, V domains shown) VH: EVRLVESGGGLVQPGGSLRLSCAASGFTFTDYYMSWVRQPPGKALEWLGFIRNKPSGYTTEYSASVKGRFTISRDNSQSILYLQMNALRAEDSATYYCARYISLWLLGYLDVWGTGTTVTVSS VL: DVQITQSPSYLAASPGETIIINCRTSKSISKYLAWYQEKPGKTNKLLIYSGSTLQSGIPSRFSGSGSGTDFTLTISSLEPEDFAMYYCQQHNEYPLTFGAGTKLELN
binds | 48D6F4 (antibody, V domains shown) VH: EVRLVESGGGLVQPGGSLRLSCAASGFTFTDYYMSWVRQPPGKALEWLGFIRNKPSGYTTEYSASVKGRFTFSRDNSQSILYLQMNALRAEDSATYYCARYISLWLLGYLDVWGTGTTVTVSS VL: DVQITQSPSYLAASPGETIIINCRTSKSISKYLAWYQEKPGKTNNLLIYSGSTLQSGIPSRFSGSGSGTDFSLTISSLEPEDFAIYYCQQHNEYPLTFGAGTKLELN
binds | 38B2G5 (antibody, V domains shown) VH: QVQLQQSGAEVAKPGASVKLSCKASGYTFTSYWMHWVKQRPGQGLEWIGYINPSNNYTKYNQKFNDKATLTADKSSSTAYMQLSSLTYEDSALYYCARVYYYGNSPAWFAYWGQGTLVTVSA VL: QIVLSQSPAILSASPGEKVTMTCRASSSVSYMHWYQQKPGSSPKPWIYATSNLASGVPARFSGSGSGTSYSLTISRVEAEDAATYYCQQWTSNPPTFGGGTKLEIK

target: Siglec-5 antigen (recombinant Siglec-5 protein coated in ELISA) (Homo sapiens (assumed), UniProt O15389); assay: ELISA
Sequence (O15389 17-551): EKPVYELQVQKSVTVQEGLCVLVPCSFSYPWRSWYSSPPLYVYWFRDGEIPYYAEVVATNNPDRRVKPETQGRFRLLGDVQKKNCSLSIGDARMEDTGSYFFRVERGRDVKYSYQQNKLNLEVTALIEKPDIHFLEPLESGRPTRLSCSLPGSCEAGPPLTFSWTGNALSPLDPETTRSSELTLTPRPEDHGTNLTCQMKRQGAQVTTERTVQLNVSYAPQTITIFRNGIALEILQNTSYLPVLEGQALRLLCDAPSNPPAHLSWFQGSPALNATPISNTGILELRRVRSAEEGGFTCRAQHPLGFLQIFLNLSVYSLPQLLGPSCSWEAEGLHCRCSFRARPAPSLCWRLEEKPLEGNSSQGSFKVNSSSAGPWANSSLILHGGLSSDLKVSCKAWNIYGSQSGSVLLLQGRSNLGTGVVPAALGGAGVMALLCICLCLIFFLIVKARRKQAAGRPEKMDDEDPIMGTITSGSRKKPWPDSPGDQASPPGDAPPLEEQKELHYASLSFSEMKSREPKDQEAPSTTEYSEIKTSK

binding result | Binder
no binding | recombinant 68A11A1 antibody (IgG1 isotype), anti-Siglec-10 monoclonal antibody (antibody, V domains shown) VH: EVKLVESGGGLVQPGGSLSLSCAASGFTFTDYYMSWVRQPPGKALEWLGFIRNKVSGYTTDYSSSVKGRFTFSRDNSQSIVYLHMNALRAEDSATYYCTRYVSLWLLGYFDVWGTGTTVTVSS VL: DVQLTQSPSYLAASPGETITINCRTSKSISKYLAWYQEKPGKTNKLLIYSGSTLQSGIPSRFSGSGSGTDFTLTISSLEPEDFAMYYCQQHNEYPLTFGAGTKLELK
